Measurements taken from PMC7549315.

Target: GFP-SAPwt (SAP domain of SAF-A) (UniProt Q00839 8-42)
Experiment: EMSA

Chain of GFP-SAPwt (SAP domain of SAF-A) (Q00839 8-42): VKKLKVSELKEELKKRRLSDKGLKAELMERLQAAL

B1: AT-rich SAR DNA (dsDNA)
DNA 1: AATTCAGAAAATAATAAAATAAAACTAGCTATTTTATATTTTTTC
DNA 2: GAAAAAATATAAAATAGCTAGTTTTATTTTATTATTTTCTGAATT
- Kd: 16.5 µM
